Measurements taken from the RNAGym collection of RNA variant scans (doi:10.1073/pnas.2313332121).
This sample holds only a part of the variants without activity.

B1: TPR 5TU (parent)
chain: GGAUCUUCUCGAUCUAACAAAAAAGACAAAUCUGCCACAAAGCUUGAGAGCAUCUUCGGAUGCAGAGGCGGCAGCCUUCGGUGGCGCGAUAGCGCCAACGUUCUCAACUAUGACACGCAAAACGCGUGCUCCGUUGAAUGGAGUUUAUCAUG

Variants of: B1
Assay: polymerase ribozyme fitness, log enrichment relative to wild type (log ratio); higher = more active; in vitro selection for triplet polymerase activity
Outline: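 Each subunit of a heterodimeric triplet polymerase ribozyme was mutagenized into a library by PCR, transcribed, and subjected to one round of in vitro selection, run in triplicate. Libraries were annealed with a biotinylated primer, the partner subunit and triplets, incubated frozen at −7 °C, and extended constructs were gel-excised, captured on streptavidin beads and recovered by RT-PCR. Input and output libraries were sequenced on Illumina, keeping genotypes with ≥10 input reads and ≥1 read per output. Fitness is log base 2 of genotype enrichment divided by wild-type enrichment, from inverse-variance-weighted replicate averages.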

First: A60U C131G
Second: G59C C85G A89U G92A
The “polymerase ribozyme fitness (log ratio)” value of the first is higher: -3.54 for the first, no more than -4.2 for the second.

Compared with G58U G94U G140U, G59A C87U is higher in “polymerase ribozyme fitness (log ratio)” value: -3.9 for the first, -1.42 for the second.

U61A G74A C76U C87A C108U A142U and U61A A89C A107U G117U U144G U151A cannot be ordered by “polymerase ribozyme fitness (log ratio)” value: no more than -4.2 for the first, no more than -4.2 for the second.

Going from G67A G86A to U61G A91C C93U C114A G126A U135G, the “polymerase ribozyme fitness (log ratio)” value falls from -3.58 to no more than -4.2.

C63U A89G C93A and C63U C75A G84A C118G A120G cannot be ordered by “polymerase ribozyme fitness (log ratio)” value: no more than -4.2 for the first, no more than -4.2 for the second.

Compared with A60G C96U, G59U C95U is lower in “polymerase ribozyme fitness (log ratio)” value: 0.674 for the first, -2.6 for the second.

Going from G59A G100C to G59C C103U, the “polymerase ribozyme fitness (log ratio)” value rises from no more than -4.2 to 0.229.

Going from G62A G84A U135A to A64G, the “polymerase ribozyme fitness (log ratio)” value falls from -1.93 to -2.27.

Compared with A64C, A64U is higher in “polymerase ribozyme fitness (log ratio)” value: no more than -4.2 for the first, -3.99 for the second.

First: A66G C85U
Second: A60C G71C C93G G140A U151C
The “polymerase ribozyme fitness (log ratio)” value of the first is higher: -3.45 for the first, no more than -4.2 for the second.

First: G59U G86U
Second: G65C G81U G94C C105G A115G C129U A138C
The “polymerase ribozyme fitness (log ratio)” value of the first is higher: -3.85 for the first, no more than -4.2 for the second.

First: G58U C95A C149U
Second: A60G G74A
The “polymerase ribozyme fitness (log ratio)” value of the first is higher: -0.828 for the first, -3.26 for the second.

Compared with A66G C85U G86U, U61A C96A is higher in “polymerase ribozyme fitness (log ratio)” value: no more than -4.2 for the first, -1.36 for the second.

First: U61A C96U
Second: A60C C76U A89G C114U G141U
The “polymerase ribozyme fitness (log ratio)” value of the first is higher: -1.32 for the first, no more than -4.2 for the second.

Going from A60C A73U to G67A A89G G92C C93A C116U A122C U127C, the “polymerase ribozyme fitness (log ratio)” value falls from -3.54 to no more than -4.2.

Compared with G59U A66G A91G G100U U134A G143A A147G A150C, A60G G83A G133C is higher in “polymerase ribozyme fitness (log ratio)” value: no more than -4.2 for the first, -1 for the second.

Going from G62U C63U G68A C95A C103A to G59U G80A, the “polymerase ribozyme fitness (log ratio)” value rises from no more than -4.2 to -0.046.

Going from G59A G92C to G59A C76G G80C C116G C118G, the “polymerase ribozyme fitness (log ratio)” value falls from -2.78 to no more than -4.2.

First: G59U A106G C114U
Second: C63U C69A G80A C85U G94C C99A
The “polymerase ribozyme fitness (log ratio)” value of the first is higher: -1.65 for the first, -3.32 for the second.

Compared with U61A C99G, C63U C79G A91G A107G is lower in “polymerase ribozyme fitness (log ratio)” value: -3.23 for the first, no more than -4.2 for the second.

G59C C69U C93G G100A G124U and A66C A91G A98U C131A U139A cannot be ordered by “polymerase ribozyme fitness (log ratio)” value: no more than -4.2 for the first, no more than -4.2 for the second.

G59U C103U and G62A U82A are within 0.2 log units of each other in “polymerase ribozyme fitness (log ratio)” value: -0.503 for the first, -0.432 for the second.

Compared with G62U A106C U146G C149U, A60U C87U is higher in “polymerase ribozyme fitness (log ratio)” value: -3.91 for the first, -1.36 for the second.

U61G G84A U139C U145C and G65C G74C G88A C93G U146A cannot be ordered by “polymerase ribozyme fitness (log ratio)” value: no more than -4.2 for the first, no more than -4.2 for the second.

First: G67A C76A
Second: G67C U101A G141U A150U G152U
The “polymerase ribozyme fitness (log ratio)” value of the first is higher: -4.16 for the first, no more than -4.2 for the second.

Compared with C63U C75A G86A A89U A106U U134G, A60U C76A A120U is higher in “polymerase ribozyme fitness (log ratio)” value: no more than -4.2 for the first, -1.94 for the second.

Compared with A60G G68A U139A, A60G C93U U104G G143C is higher in “polymerase ribozyme fitness (log ratio)” value: no more than -4.2 for the first, -3.09 for the second.

Going from G59A U61C to G65A A113G, the “polymerase ribozyme fitness (log ratio)” value falls from -0.735 to -3.91.

Going from A60C A91U C93G A122C to G59C C93G, the “polymerase ribozyme fitness (log ratio)” value rises from no more than -4.2 to -2.98.

Compared with G59C C93U, G59C U61A A64C is lower in “polymerase ribozyme fitness (log ratio)” value: -1.11 for the first, no more than -4.2 for the second.

C63A C79U G94C A119G and G62C G84A C125G G128A cannot be ordered by “polymerase ribozyme fitness (log ratio)” value: no more than -4.2 for the first, no more than -4.2 for the second.

Going from C63A G83A U145C A150U to G59U A107C A121U, the “polymerase ribozyme fitness (log ratio)” value falls from -0.965 to -3.86.

Compared with G59A U127A, G65A C85U A137U U139A G140A G152A is higher in “polymerase ribozyme fitness (log ratio)” value: -3.81 for the first, -3.3 for the second.

G59C C93G A97U U127C A137G and G62C G81A A91U A113U C125U cannot be ordered by “polymerase ribozyme fitness (log ratio)” value: no more than -4.2 for the first, no more than -4.2 for the second.

Compared with G59U C96U A121C G126A U146G, G58U G86A is higher in “polymerase ribozyme fitness (log ratio)” value: -2.76 for the first, -1.55 for the second.

A60U C85G G92C U102G and A64G G84U U151A cannot be ordered by “polymerase ribozyme fitness (log ratio)” value: no more than -4.2 for the first, no more than -4.2 for the second.

First: G59C C87U U102G C132U U145G
Second: G59A G84A
The “polymerase ribozyme fitness (log ratio)” value of the first is lower: no more than -4.2 for the first, -2.24 for the second.

G59U C87G C95U U101G C149G and A60U U61A G86A C93A A110C G133A cannot be ordered by “polymerase ribozyme fitness (log ratio)” value: no more than -4.2 for the first, no more than -4.2 for the second.

First: G58U C95U
Second: A60G G88C A106U U134A G140C G143C
The “polymerase ribozyme fitness (log ratio)” value of the first is higher: -0.414 for the first, no more than -4.2 for the second.

G59C G65C C76G U145G C149A and G59A C85G C99U A120G cannot be ordered by “polymerase ribozyme fitness (log ratio)” value: no more than -4.2 for the first, no more than -4.2 for the second.

G62C G143U and G59C U127A are within 0.2 log units of each other in “polymerase ribozyme fitness (log ratio)” value: -3.58 for the first, -3.77 for the second.

Going from G59C C75U to A60U A64C A89U C116G G133C A147C U148C, the “polymerase ribozyme fitness (log ratio)” value falls from -1.52 to no more than -4.2.
